Measured values published in publication doi:10.1101/2021.07.07.451367 (bioRxiv, 2021).

Biological target: T1, mNG::aPKC (C. elegans (endogenous in zygotes), UniProt Q19266 1-597)
T1 sequence (looked up): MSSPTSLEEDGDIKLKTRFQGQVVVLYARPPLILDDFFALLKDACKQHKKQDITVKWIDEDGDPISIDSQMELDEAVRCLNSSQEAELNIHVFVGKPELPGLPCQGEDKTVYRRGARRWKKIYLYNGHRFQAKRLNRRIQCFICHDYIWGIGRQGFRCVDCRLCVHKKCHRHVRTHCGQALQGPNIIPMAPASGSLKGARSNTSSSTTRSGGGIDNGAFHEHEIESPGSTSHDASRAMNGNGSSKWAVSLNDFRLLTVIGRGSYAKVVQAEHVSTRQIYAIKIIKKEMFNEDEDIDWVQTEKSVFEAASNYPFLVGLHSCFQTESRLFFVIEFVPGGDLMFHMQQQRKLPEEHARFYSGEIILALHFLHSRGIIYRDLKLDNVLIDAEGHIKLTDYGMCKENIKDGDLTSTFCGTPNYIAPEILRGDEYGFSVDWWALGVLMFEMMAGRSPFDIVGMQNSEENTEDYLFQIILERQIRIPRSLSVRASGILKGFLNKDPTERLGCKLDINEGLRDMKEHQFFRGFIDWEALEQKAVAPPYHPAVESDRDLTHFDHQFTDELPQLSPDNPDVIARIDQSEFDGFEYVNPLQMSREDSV
Test: single-cell single-molecule pull-down

koff: 0.002 s⁻¹
B1: PAR-6::HaloTag (natural protein, C. elegans (endogenous in zygotes), UniProt Q9NAN2 1-309, looked up)
chain: MSYNGSYHQNHHSTLQVKSKFDSEWRRFSIPMHSASGVSYDGFRSLVEKLHHLESVQFTLCYNSTGGDLLPITNDDNLRKSFESARPLLRLLIQRRGESWEEKYGYGTDSDKRWKGISSLMAQKPPKRSYSISNPEDFRQVSAIIDVDIVPEAHRRVRLCKHGQERPLGFYIRDGTSVRVTERGVVKVSGIFISRLVDGGLAESTGLLGVNDEVLEVNGIEVLGKTLDQVTDMMVANAHNLIITVKPANQRNTLSRGPSQQGTPNASEMSAATAAATGGIQRPMKMNGSSDGSYHPKQHDANDSDSGED
modifications: HaloTag labelled with HaloTag ligand dye JF646, JFX646 or JFX650
